From US20210223235A1

Target: QTARK^MeSTGC (SEQ ID NO: 4), methylated H3K9 peptide ligand immobilized on the monolayer
Test: cell-based or functional assay

Substance: Cbx1 fusion protein (Cbx1 chromodomain fused to KDAC8 through a short linker) (from UniProt P83916 20-73; Q9BY41 1-377)
- rate acceleration for the deacetylation reaction (SAMDI mass spectrometry): 20 fold
